# pKd: −log10 of the molar value. Values joined by “and” are separate entries in the source; they are usually repeats but may differ in a detail not shown here. Equal entries are not always repeated.
# Columns and labels:
# [1] = biological target: T1, σNS (sigma NS) (Avian reovirus strain 1733) (UniProt W8NR44); assay: fluorescence anisotropy; details: FA: 10 mM HEPES-NaOH pH 7.5, 150 mM NaCl, 21 C, 1 nM RNA, 30 min; smFRET in same buffer at 37 C; SEC 25 mM HEPES-Na pH 7.8, 150 mM NaCl, 4 C
# T1 sequence: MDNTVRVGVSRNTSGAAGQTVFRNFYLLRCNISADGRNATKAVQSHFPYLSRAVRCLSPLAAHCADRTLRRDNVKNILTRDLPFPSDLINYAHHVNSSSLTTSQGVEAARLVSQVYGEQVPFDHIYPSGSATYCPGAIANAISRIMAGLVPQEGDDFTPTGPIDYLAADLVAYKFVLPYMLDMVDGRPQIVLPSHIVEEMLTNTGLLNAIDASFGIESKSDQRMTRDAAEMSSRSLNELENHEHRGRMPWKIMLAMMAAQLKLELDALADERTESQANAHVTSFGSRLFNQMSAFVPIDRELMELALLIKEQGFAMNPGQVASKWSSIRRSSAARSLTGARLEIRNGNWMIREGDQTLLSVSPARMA
# [2] = biological target: T1, σNS (sigma NS) (Avian reovirus strain 1733); assay: ensemble FRET; details: FA: 10 mM HEPES-NaOH pH 7.5, 150 mM NaCl, 21 C, 1 nM RNA, 30 min; smFRET in same buffer at 37 C; SEC 25 mM HEPES-Na pH 7.8, 150 mM NaCl, 4 C
# [3] = biological target: T1, σNS (sigma NS) (Avian reovirus strain 1733); assay: fluorescence anisotropy; details: FA: 10 mM HEPES-NaOH pH 7.5, 150 mM NaCl, 21 C, 1 nM RNA, 30 min; smFRET in same buffer at 37 C; SEC 25 mM HEPES-Na pH 7.8, 150 mM NaCl, 4 C; remark: listed apart in the source
# [4] = biological target: T1, σNS (sigma NS) (Avian reovirus strain 1733); assay: FCS; details: FA: 10 mM HEPES-NaOH pH 7.5, 150 mM NaCl, 21 C, 1 nM RNA, 30 min; smFRET in same buffer at 37 C; SEC 25 mM HEPES-Na pH 7.8, 150 mM NaCl, 4 C
# [5] = biological target: avian reovirus σNS (ARV strain 1733), full-length recombinant (avian reovirus strain 1733); assay: AUC
# [6] = biological target: avian reovirus σNS (ARV strain 1733), full-length recombinant (avian reovirus strain 1733); assay: SAXS
# [7] = biological target: avian reovirus σNS (ARV strain 1733), full-length recombinant (avian reovirus strain 1733); assay: native MS
# [8] = biological target: avian reovirus σNS (ARV strain 1733), full-length recombinant (avian reovirus strain 1733); assay: native MS; remark: listed apart in the source
Substance,pKd [1],pKd [3],pKd [4],other results
20-nt ssDNA,7.61,,,
ATAGGTATAACAGTTAACGTATGCTATACGCTAATAGCATACGTTT [46-nt stem-loop],,6.48,,pKd [2]: 5.96
GACCUAUUCUCUUUUUCUCU [20-nt RNA],7.46,7.58,7.40,
GGGAGACCUAUUCUCUUUUUCUCUCCUUUUCCCCCCUGUUGCUUUAUUUUCCUUCUUUGCCUUUUUCUCUCUUUUUUUUUCUUUUUUCCCUUUCUGCUUUCCUCCCCUAUUCUCCCCUCUU [120-nt RNA],,7.60,,
MS2 RNA (3569 nt),,,6.60,
"avian reovirus σNS (ARV strain 1733), full-length recombinant (natural protein)",,,,stoichiometry N [5]: 6; stoichiometry N [6]: 6; stoichiometry N [7]: 6 and 2 and 4; stoichiometry N [8]: 8

# From PMC4538827
